Measured values taken from paper PMC11263335.

Key:
[1] = target: shrimp hemocyanin (SHC) from Litopenaeus vannamei (Litopenaeus vannamei) (UniProt Q26180); assay: SEC; purified SHC dissolved in PBS, Superdex-200 column, size by standard proteins
[2] = target: shrimp hemocyanin (SHC) from Litopenaeus vannamei (Litopenaeus vannamei) (UniProt Q26180); assay: SEC + other: transmission electron microscopy (uranyl acetate stain); purified SHC in PBS; Superdex-200 elution and particle diameters on a carbon-coated grid (FEI F20, 120 kV), compared with AlphaFold models of monomer and tetramer

percent of SHC eluting between 158 and 440 kDa [1]: 80%
stoichiometry N [2]: 4
Substance: shrimp hemocyanin (SHC) from Litopenaeus vannamei (from UniProt Q26180 1-662) (natural protein)
